Measured values from patent publication US20250043302A1, “MUTATED HYDROXYPHENYLPYRUVATE DIOXYGENASE POLYPEPTIDE, AND CODING GENE AND USE THEREOF” (BEIJING DABEINONG BIOTECHNOLOGY CO., LTD., priority 2021, published 2025).

What was measured:
Assay type in all cases: in vivo
[1] = tested on: Arabidopsis thaliana T1 plants; experiment: Mesotrione tolerance of transgenic Arabidopsis thaliana T1 plants (spray, bleached leaf area grade, damage score); parameters: Scores: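 damage score 0-100 computed as Σ(N×S)/(T×M)×100 over grades 0-3 with higher meaning more damage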; details: Arabidopsis thaliana T1 plants; for Grade 0 (classification and statistics of the grade of pesticide damage; number of plants) / Grade 1 (classification and statistics of the grade of pesticide damage; number of plants) / Grade 2 (classification and statistics of the grade of pesticide damage; number of plants) / Grade 3 (classification and statistics of the grade of pesticide damage; number of plants): 16 plants
How it was run: (§1)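 Damage graded 0–3 from the proportion of bleached leaf area 7 days after spraying. Plants were glufosinate-selected T1 lines, 18 days after sowing, plus vector and wild-type controls. Rates: mesotrione 52.5–420, isoxaflutole 35–280, topramezone 25–200 g ai/ha, with water (0×).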

soybean T1 plants [2] = experiment: Isoxaflutole tolerance of transgenic soybean T1 plants; details: different concentrations
soybean T1 plants [3] = experiment: Mesotrione tolerance of transgenic soybean T1 plants; details: different concentrations
[4] = tested on: Arabidopsis thaliana T1 plants; experiment: Topramezone tolerance of transgenic Arabidopsis thaliana T1 plants (spray, bleached leaf area grade, damage score); details: 7 DAT, Table 4; for Classification and statistics of the grade of pesticide damage: Grade 0 / Classification and statistics of the grade of pesticide damage: Grade 1 / Classification and statistics of the grade of pesticide damage: Grade 2 / Classification and statistics of the grade of pesticide damage: Grade 3: number of plants; for Scores: pesticide damage score 0-100
How it was run: as §1

soybean T1 plants [5] = experiment: Topramezone tolerance of transgenic soybean T1 plants; details: different concentrations
Procedure: T1 transformants were initially selected from the untransformed seeds using a glufosinate selection scheme. […] The degree of damage caused by the herbicide was measured for each plant according to the proportion of bleached leaf area (the proportion of bleached leaf area=bleached leaf area/total leaf area×100%) 7 days after spraying (7 DAT): the case where there is basically no bleached phenotype is defined as grade 0, the case where the proportion of bleached leaf area is less than 50% is defined as grade 1, the case where the proportion of bleached leaf area is more than 50% is defined as grade 2, and the case where the proportion of bleached leaf area is 100% grade is defined as grade 3.
The soybean T1 plants into which the SbHPPD-02 nucleotide sequence was introduced, soybean T1 plants into which the SbHPPDm-F372A-02 nucleotide sequence was introduced, soybean T1 plants into which the SbHPPDm-F383W-02 nucleotide sequence was introduced, soybean T1 plants into which the SbHPPDm-F372A-F383W-02 nucleotide sequence was introduced, soybean T1 plants into which the control vector DBN11726N nucleotide sequence was introduced, and wild-type soybean plants (V3-V4 at seedling stage) were sprayed with topramezone at three different concentrations (i.e., 25 g ai/ha (one-fold field concentration, 1×). […] According to the method in point 6 of Example 1, after 7 days of spraying (7 DAT), the damage degree of each plant by the herbicide was statistically analyzed, and the scoring and resistance evaluation were carried out accordingly. […]

[6] = tested on: Arabidopsis thaliana T1 plants; experiment: Isoxaflutole tolerance of transgenic Arabidopsis thaliana T1 plants (spray, bleached leaf area grade, damage score); parameters: Scores (pesticide damage): scale not given here; details: spray, Arabidopsis thaliana T1 plants; for Classification and statistics of the grade of pesticide damage: Grade 0 (number of plants) / Classification and statistics of the grade of pesticide damage: Grade 1 (number of plants) / Classification and statistics of the grade of pesticide damage: Grade 2 (number of plants) / Classification and statistics of the grade of pesticide damage: Grade 3 (number of plants): 16 plants
How it was run: as §1

[7] = isoxaflutole 35 g ai/ha (0.5x field concentration)
[8] = isoxaflutole 70 g ai/ha (1x field concentration)

B1: SbHPPDm-F372A-02: nucleotide sequence encoding Sorghum bicolor HPPD with F372A; vector DBN11759 (nucleic acid)
DNA: ATGCCGCCCACTCCAACAACTGCTGCTGCGACGGGAGCAGCTGTCGCCGCTGCTTCTGCTGAGCAGGCTGCCTTCAGGCTCGTCGGGCACAGAAATTTTGTTCGTGTAAATCCAAGGAGTGATAGGTTCCACACCTTGGCTTTTCACCACGTGGAGTTGTGGTGTGCTGATGCAGCCTCGGCAGCGGGGCGCTTCTCGTTTGGTCTCGGTGCTCCGCTCGCCGCAAGATCTGATCTTAGCACTGGAAACACAGCGCATGCCTCCCTGCTCCTGCGCTCTGGCGCGCTGGCGTTCCTCTTCACGGCGCCATATGCTCACGGCGCCGACGCCGCCACCGCGTCATTGCCGTCTTTTAGTGCAGCCGAAGCAAGAAGATTTGCAGCAGACCACGGCCTCGCCGTAAGGGCCGTGGCCTTACGTGTCGCCGATGCCGAAGATGCTTTCCGCGCCTCTGTAGCAGCTGGAGCAAGGCCAGCATTTGAACCTGTTGAATTGGGGTTAGGATTCCGTCTTGCAGAAGTTGAGCTTTATGGCGACGTTGTTTTGAGATACGTTTCATATCCTGATGACGCTGACGCTAGCTTCTTGCCTGGTTTTGTGGGGGTGACATCACCTGGGGCAGCAGATTATGGTCTCAGGCGGTTTGATCATATTGTTGGAAACGTTCCTGAACTCGCGCCGGCGGCAGCCTACTTCGCCGGTTTCACTGGGTTTCATGAATTTGCTGAATTCACAGCCGAGGATGTCGGCACCACCGAGAGTGGACTGAACTCCATGGTGCTGGCCAACAATGCAGAGAATGTCCTTCTTCCCTTGAATGAACCAGTTCATGGAACAAAAAGGCGTTCCCAAATACAAACATACCTCGACCATCATGGTGGACCAGGCGTTCAGCATATGGCTCTCGCTAGTGACGATGTTCTACGAACCCTGCGAGAGATGCAGGCGCGGTCTGCAATGGGAGGATTTGAGTTCATGGCACCTCCTGCCCCTGAATATTATGATGGTGTTCGGAGAAGGGCAGGTGATGTGCTAACTGAAGCTCAAATCAAGGAGTGCCAGGAGCTTGGCGTGCTGGTCGATCGGGATGATCAAGGTGTGCTTCTGCAGATTGCCACTAAACCAGTGGGTGACCGCCCCACGCTGTTCCTAGAGATCATCCAGAGAATAGGGTGCATGGAGAAGGACGAAAAAGGACAAGAGTACCAGAAGGGAGGTTGTGGCGGCTTTGGAAAAGGGAACTTCTCCCAATTATTCAAGTCAATTGAAGACTATGAAAAGAGTTTGGAGGCTAAGCAAGCTGCAGCCGCCCAGGGCAGCTGA
modifications: SbHPPDm-F372A-02 Nucleotide Sequence
notes: vector DBN11759
Resistance evaluation ([1]; mesotrione 52.5 g ai/ha): Poorly resistant
Scores ([1]; mesotrione 52.5 g ai/ha): 60
Grade 0 (classification and statistics of the grade of pesticide damage; number of plants) ([1]; mesotrione 52.5 g ai/ha): 0
Grade 1 (classification and statistics of the grade of pesticide damage; number of plants) ([1]; mesotrione 52.5 g ai/ha): 6
Grade 2 (classification and statistics of the grade of pesticide damage; number of plants) ([1]; mesotrione 52.5 g ai/ha): 7
Grade 3 (classification and statistics of the grade of pesticide damage; number of plants) ([1]; mesotrione 52.5 g ai/ha): 3
Resistance evaluation ([1]; mesotrione 105 g ai/ha): Non-resistant
Scores ([1]; mesotrione 105 g ai/ha): 100
Grade 0 (classification and statistics of the grade of pesticide damage; number of plants) ([1]; mesotrione 105 g ai/ha): 0
Grade 1 (classification and statistics of the grade of pesticide damage; number of plants) ([1]; mesotrione 105 g ai/ha): 0
Grade 2 (classification and statistics of the grade of pesticide damage; number of plants) ([1]; mesotrione 105 g ai/ha): 0
Grade 3 (classification and statistics of the grade of pesticide damage; number of plants) ([1]; mesotrione 105 g ai/ha): 16
tolerance to HPPD-inhibitor herbicides (in words): isoxaflutole (soybean T1 plants [2]): different degrees of tolerance
tolerance to HPPD-inhibitor herbicides (in words): mesotrione (soybean T1 plants [3]): different degrees of tolerance
Classification and statistics of the grade of pesticide damage: Grade 0 ([4]; topramezone 25 g ai/ha (1×)): 16
Classification and statistics of the grade of pesticide damage: Grade 1 ([4]; topramezone 25 g ai/ha (1×)): 0
Classification and statistics of the grade of pesticide damage: Grade 2 ([4]; topramezone 25 g ai/ha (1×)): 0
Classification and statistics of the grade of pesticide damage: Grade 3 ([4]; topramezone 25 g ai/ha (1×)): 0
Classification and statistics of the grade of pesticide damage: Grade 0 ([4]; topramezone 100 g ai/ha (4×)): 4
Classification and statistics of the grade of pesticide damage: Grade 1 ([4]; topramezone 100 g ai/ha (4×)): 4
Classification and statistics of the grade of pesticide damage: Grade 2 ([4]; topramezone 100 g ai/ha (4×)): 8
Classification and statistics of the grade of pesticide damage: Grade 3 ([4]; topramezone 100 g ai/ha (4×)): 0
Scores ([4]; topramezone 25 g ai/ha (1×)): 0
Scores ([4]; topramezone 100 g ai/ha (4×)): 42
Resistance evaluation ([4]; topramezone 25 g ai/ha (1×)): highly
Resistance evaluation ([4]; topramezone 100 g ai/ha (4×)): poorly
tolerance to HPPD-inhibitor herbicides (in words): topramezone (soybean T1 plants [5]): different degrees of tolerance
Resistance evaluation [6, 7]: Poorly
Scores (pesticide damage) [6, 7]: 67
Classification and statistics of the grade of pesticide damage: Grade 0 (number of plants) [6, 7]: 0
Classification and statistics of the grade of pesticide damage: Grade 1 (number of plants) [6, 7]: 2
Classification and statistics of the grade of pesticide damage: Grade 2 (number of plants) [6, 7]: 12
Classification and statistics of the grade of pesticide damage: Grade 3 (number of plants) [6, 7]: 2
Resistance evaluation [6, 8]: Non-resistant
Scores (pesticide damage) [6, 8]: 100
Classification and statistics of the grade of pesticide damage: Grade 0 (number of plants) [6, 8]: 0
Classification and statistics of the grade of pesticide damage: Grade 1 (number of plants) [6, 8]: 0
Classification and statistics of the grade of pesticide damage: Grade 2 (number of plants) [6, 8]: 0
Classification and statistics of the grade of pesticide damage: Grade 3 (number of plants) [6, 8]: 16
